Experimental data from doi:10.1101/2021.07.28.453719.

How the values were obtained:
Experiment in all cases: ITC
[1] = biological target: second bromodomain (BD2) of BRD4 (human)
[2] = biological target: BRD2-L108AzF mutant (photo-responsive bromodomain analogue) (human)
[3] = biological target: BRD3-L68AzF mutant (photo-responsive bromodomain analogue) (human) (UniProt Q15059)
[4] = biological target: BRDT-L61AzF mutant (photo-responsive bromodomain analogue) (human)
[5] = biological target: first bromodomain (BD1) of BRD2, wild type (human)
[6] = biological target: first bromodomain (BD1) of BRDT, wild type (human)

| Substance | Kd [1] [µM] | Kd [2] [µM] | Kd [3] [µM] | Kd [4] [µM] | Kd [5] [µM] | Kd [6] [µM] |
| --- | --- | --- | --- | --- | --- | --- |
| diacetylated ILF3 peptide 10 (AKacGLLLKacG) | 33 |  |  |  |  |  |
| ILF3 variant peptide AKacGALLKacG (aa 99-106) 15 carrying L102A | 57 |  |  |  |  |  |
| tetra-acetylated histone H4 peptide (H4Kac4) 2 (from UniProt P62805 2-22) |  | 93.5 | 14.2 | 13.5 | 27.8 | 13.7 |
